In the supplement of paper PMC10126150:
± gives the standard deviation of the averaged measurements.

Test system: ATP
Assay: switch fluorescence ratio, 500 uM ATP over buffer (Cy3 cluster intensity, sum of 5 cycles each) (fold (ratio)); higher = stronger signal-on switching upon ATP binding; sequences stand for … in TCGTCGGCAGCGTCAGATGTGTATAAGAGACAGTTTTTTTTTTTTTTTTTTTTTTTTT…TC
Conditions: aptamer strand: ATP DNA aptamer (quencher-CACCTGGGGGAGTATTGCGGAGGAAGG + anchor), 100 nM annealed; ATP concentration: 500 uM
Method in brief: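 After annealing to 100 nM quencher-labelled ATP aptamer, Cy3-labelled switching-strand clusters on a modified Illumina MiSeq flow-cell were imaged in selection buffer. A second image followed after 15 min with 500 uM ATP at 22 °C, and five such buffer/ATP cycles were done, each separated by NaOH stripping and re-annealing. The fluorescence ratio, averaged per switch-domain sequence, is summed target-cycle over summed buffer-cycle Cy3 intensity per cluster, with clusters outside 100-1000 RFU excluded.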
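Note: ATP exposure 15 min at 22 °C before imaging.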

Going from TTATAGTCAT to TTATATACAG, the switch fluorescence ratio rises from 0.965 ± 0.027 to 1.058 ± 0.0062.

TTATATATGC and TTATATCTAC are within error of each other in switch fluorescence ratio: 0.986 ± 0.028 for the first, 1.004 ± 0.0045 for the second.

TTATATGGGG and TTATATGGGT are within error of each other in switch fluorescence ratio: 1 ± 0.018 for the first, 0.999 ± 0.013 for the second.

TTATATTCGC and TTATATTGGA are within error of each other in switch fluorescence ratio: 1.02 ± 0.084 for the first, 0.971 ± 0.017 for the second.

TTATCAGTTG and TTATCATCCG are within error of each other in switch fluorescence ratio: 1.01 ± 0.057 for the first, 1.08 ± 0.038 for the second.

TTATCCGGTT and TTATCGAATG are within error of each other in switch fluorescence ratio: 1.01 ± 0.012 for the first, 0.965 ± 0.065 for the second.

TTATCGAGTT and TTATCGATGA are within error of each other in switch fluorescence ratio: 1.03 ± 0.015 for the first, 1 ± 0.03 for the second.

TTATCGCTGC and TTATCGGACG are within error of each other in switch fluorescence ratio: 1.06 ± 0.11 for the first, 0.969 ± 0.084 for the second.

TTATCGGGTT and TTATCGTGC are within error of each other in switch fluorescence ratio: 0.973 ± 0.036 for the first, 0.9864 ± 0.0071 for the second.

TTATCGTTTG and TTATCTAGTT are within error of each other in switch fluorescence ratio: 1.02 ± 0.043 for the first, 1 ± 0.054 for the second.

Going from TTATCTGTTA to TTATGAGGGT, the switch fluorescence ratio falls from 1.014 ± 0.0018 to 0.982 ± 0.015.

First: TTATGATGGA
Second: TTATGATTTA
The switch fluorescence ratio of the first is higher: 0.991 ± 0.013 for the first, 0.9434 ± 0.0029 for the second.

TTATGCGATT and TTATGGAAGG are within error of each other in switch fluorescence ratio: 1 ± 0.022 for the first, 1.03 ± 0.02 for the second.

TTATGGCATC and TTATGGCGCC are within error of each other in switch fluorescence ratio: 0.974 ± 0.029 for the first, 0.9862 ± 0.0046 for the second.

TTATGGGAAA and TTATGGTCCG are within error of each other in switch fluorescence ratio: 1.02 ± 0.023 for the first, 0.976 ± 0.045 for the second.

TTATGGTGCT and TTATGGTTTT are within error of each other in switch fluorescence ratio: 0.945 ± 0.051 for the first, 1 ± 0.024 for the second.

TTATGTACGT and TTATGTACTT are within error of each other in switch fluorescence ratio: 1.09 ± 0.021 for the first, 1.05 ± 0.021 for the second.

TTATGTATGC and TTATGTATTT are within error of each other in switch fluorescence ratio: 0.95 ± 0.08 for the first, 0.995 ± 0.015 for the second.

TTATGTCAAA and TTATGTCAGG are within error of each other in switch fluorescence ratio: 1.01 ± 0.025 for the first, 1.04 ± 0.015 for the second.

Going from TTATGTGAGA to TTATGTGATA, the switch fluorescence ratio falls from 1.01 ± 0.044 to 0.95571 ± 0.00088.

First: TTATGTGGTG
Second: TTATGTTCAG
The switch fluorescence ratio of the first is lower: 0.974 ± 0.014 for the first, 1.04 ± 0.034 for the second.

TTATGTTCGC and TTATGTTGGG are within error of each other in switch fluorescence ratio: 0.975 ± 0.034 for the first, 1.013 ± 0.0047 for the second.

TTATGTTTGT and TTATGTTTTG are within error of each other in switch fluorescence ratio: 1.01 ± 0.033 for the first, 0.999 ± 0.026 for the second.

First: TTATTAAACG
Second: TTATTACCGA
The switch fluorescence ratio of the first is lower: 1.015 ± 0.0029 for the first, 1.056 ± 0.0098 for the second.

TTATTACCTA and TTATTAGATG are within error of each other in switch fluorescence ratio: 1.06 ± 0.049 for the first, 0.997 ± 0.018 for the second.

TTATTAGATT and TTATTAGCAA are within error of each other in switch fluorescence ratio: 1.01 ± 0.005 for the first, 1.93 ± 1.4 for the second.

TTATTAGGGT and TTATTATAGT are the same in switch fluorescence ratio: 1 ± 0.022 for the first, 1 ± 0.015 for the second.

TTATTATGGA and TTATTATTT are within error of each other in switch fluorescence ratio: 1.02 ± 0.011 for the first, 0.994 ± 0.11 for the second.

TTATTCAAAT and TTATTCGGGA are the same in switch fluorescence ratio: 1.02 ± 0.035 for the first, 1.02 ± 0.031 for the second.

TTATTCTCAC and TTATTCTGCT are the same in switch fluorescence ratio: 1.031 ± 0.0064 for the first, 1.03 ± 0.03 for the second.

TTATTGAAA and TTATTGAAAA are within error of each other in switch fluorescence ratio: 1.023 ± 0.0033 for the first, 1 ± 0.032 for the second.

TTATTGACGT and TTATTGGCAA are within error of each other in switch fluorescence ratio: 1.003 ± 0.0024 for the first, 1.29 ± 0.34 for the second.

TTATTGTAT and TTATTGTGCT are within error of each other in switch fluorescence ratio: 0.988 ± 0.043 for the first, 0.983 ± 0.031 for the second.

TTATTGTGGA and TTATTGTTGG are within error of each other in switch fluorescence ratio: 0.9885 ± 0.0023 for the first, 0.974 ± 0.014 for the second.

TTATTGTTGT and TTATTTAATT are within error of each other in switch fluorescence ratio: 1 ± 0.014 for the first, 0.998 ± 0.027 for the second.

TTATTTAGAC and TTATTTAGGA are within error of each other in switch fluorescence ratio: 1 ± 0.024 for the first, 0.989 ± 0.027 for the second.

Compared with TTATTTCATG, TTATTTGAAT is higher in switch fluorescence ratio: 0.984 ± 0.022 for the first, 1.011 ± 0.0027 for the second.

TTATTTGGGG and TTATTTGTGT are within error of each other in switch fluorescence ratio: 1.01 ± 0.056 for the first, 0.987 ± 0.042 for the second.

TTATTTTCGT and TTATTTTGAC are within error of each other in switch fluorescence ratio: 0.973 ± 0.018 for the first, 1 ± 0.023 for the second.

TTATTTTTAG and TTATTTTTGT are the same in switch fluorescence ratio: 1.01 ± 0.035 for the first, 1.01 ± 0.026 for the second.

TTCAAAATAG and TTCAAAGAGT are within error of each other in switch fluorescence ratio: 1.12 ± 0.15 for the first, 0.994 ± 0.019 for the second.

TTCAAAGGCC and TTCAAAGGGG are within error of each other in switch fluorescence ratio: 0.981 ± 0.049 for the first, 1.09 ± 0.24 for the second.

First: TTCAAAGGTG
Second: TTCAAGACGG
The switch fluorescence ratio of the first is higher: 1.41 ± 0.16 for the first, 0.995 ± 0.023 for the second.

TTCAAGTTAG and TTCAATATGT are within error of each other in switch fluorescence ratio: 1 ± 0.035 for the first, 0.991 ± 0.049 for the second.

TTCAATGGAA and TTCAATGGCT are within error of each other in switch fluorescence ratio: 1.03 ± 0.011 for the first, 0.983 ± 0.046 for the second.

TTCAATGGGC and TTCAATTGGT are within error of each other in switch fluorescence ratio: 0.998 ± 0.064 for the first, 0.974 ± 0.033 for the second.

Going from TTCAATTTGC to TTCACGGACC, the switch fluorescence ratio rises from 1.02 ± 0.033 to 1.455 ± 0.013.

TTCAGAAATT and TTCAGAGACT are within error of each other in switch fluorescence ratio: 1.01 ± 0.011 for the first, 1 ± 0.034 for the second.

TTCAGATACC and TTCAGCATTT are within error of each other in switch fluorescence ratio: 1.04 ± 0.017 for the first, 1.1 ± 0.068 for the second.

Compared with TTCAGCGCGA, TTCAGGACTC is lower in switch fluorescence ratio: 1.14 ± 0.014 for the first, 0.973 ± 0.045 for the second.
